# Results reported in patent US20210122795A1 (CITY OF HOPE, published 2021).
# Ends that are not written are not given here.
# B1: mLcn2 (modified lipocalin2, monomeric) (designed binder)
# chain: QDSTSDLIPAPPLSKVPLQQNFQDNQFHGKWYVVGLAGNRILRDDQHPMNMYATIYELKEDKSYNVTSVISSHKKCEYTIATFVPGSQPGEFTLGNIKSYGDKTSYLVRVVSTDYNQYAVVFFKLAEDNAEFFAITIYGRTKELASELKENFIRFSKSLGLPENHIVFPVPIDQCIDG
# notes: Engineered lipocalin 2; also called monomeric mLCN2
# B2: Peptide 16 (chemically synthesized cyclic peptide) (peptide)
# peptide: CWSPLPFMC
# modifications: also: cyclic peptide, ring type not given here
# notes: Immobilized on a CM5 chip in the SPR; also called Pep16
# B3: Peptide 12 (chemically synthesized cyclic peptide) (peptide)
# peptide: CSVLPPFMC
# modifications: also: cyclic peptide, ring type not given here
# notes: Immobilized on a CM5 chip in the SPR; also called Pep12
# How the values were obtained:
# [1] = biological target: T1, CTLA-4-Fc (recombinant bivalent CTLA-4 fused to the human IgG1 Fc) (human, UniProt P16410 36-161, Homodimer through the IgG1 Fc (bivalent); the Fc is left out of the letters.); assay: SPR; dimeric CTLA-4-Fc immobilized at medium density on a CM5 chip; analyte 3-1000 nM
# T1 construct: also called dimeric CTLA-4-Fc; CTLA-4 (in the SEC legends); not shown: human IgG1 Fc and any linker of the CTLA-4-Fc fusion
# T1 sequence (P16410 36-161 limits assumed): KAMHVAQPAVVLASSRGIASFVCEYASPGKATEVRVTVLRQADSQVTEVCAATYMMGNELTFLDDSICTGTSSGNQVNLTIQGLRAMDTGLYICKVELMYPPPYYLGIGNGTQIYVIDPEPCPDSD
# Experimental: (§1) FIG. 10A: SPR analysis. Dimeric CTLA-4-Fc was immobilized at medium density to a CM5 chip. A range of 3-1000 nM monomeric mLCN2 (top) and 3-300 nM dimeric mLCN2-Fc (bottom) analytes were used for kinetics analyses. […] Concentration of analytes is 1000; 300; 30; and 3 nM.
# [2] = biological target: B2; assay: SPR; analyte mLcn2 flowed over Peptide16 immobilized on a CM5 chip; analyte mLcn2 flowed over Peptide16 immobilized to a CM5 chip
# Excerpt: FIG. 14A: mLCN2 vs. Pep16. Surface plasmon resonance of analyte mLcn2 flowed over ligand Peptide16 immobilized to a CM5 chip. Representative results are shown from three independent experiments.
# [3] = biological target: B1; assay: crystal structures of the peptide-mLcn2 complexes
# [4] = biological target: B3; assay: SPR; analyte mLcn2-Fc flowed over Peptide12 immobilized on a CM5 chip
# Excerpt: FIG. 14B: mLCN2-Fc vs. Pep12. Surface plasmon resonance of analyte mLcn2-Fc flowed over ligand Peptide12 immobilized to a CM5 chip. Representative results are shown from three independent experiments.
# [5] = biological target: T1, CTLA-4-Fc (recombinant bivalent CTLA-4 …); assay: SPR; dimeric CTLA-4-Fc immobilized at medium density on a CM5 chip; analyte 3-300 nM
# Experimental: as §1
binder,measurement,setting,value
B1,koff,[1],0.0002 s⁻¹
same,kon,[1],36000 M⁻¹ s⁻¹
same,Kd,[2],4.6 µM
B2,binding result,[3],binds
B3,binding result,[3],binds
"mLcn2-Fc (unmodified, without N-terminal mask) (Fc fusion, also called dimeric mLCN2-Fc; unmodified mLcn2-Fc; not shown: flexible linker between mLcn2 and Fc; human IgG1 Fc domain) QDSTSDLIPAPPLSKVPLQQNFQDNQFHGKWYVVGLAGNRILRDDQHPMNMYATIYELKEDKSYNVTSVISSHKKCEYTIATFVPGSQPGEFTLGNIKSYGDKTSYLVRVVSTDYNQYAVVFFKLAEDNAEFFAITIYGRTKELASELKENFIRFSKSLGLPENHIVFPVPIDQCIDG",Kd,[4],3.4 µM
same,kon,[5],10000 M⁻¹ s⁻¹
